Data on 5 molecules can be found in article PMC3139367 (Journal of molecular biology, 2011).

For one assay, the target named is p300/CBP KIX (UniProt Q92793). The settings on record: cited from earlier work.
In assay [1] the target is T1, GST-KIX (aa 588-683, from mouse CBP) (mouse, UniProt P45481 588-683). The assay can be described thus: native gel or EMSA. Background: Mobility shift assays separate free from complexed probe on a gel.
The target of assay [2] is T1, GST-KIX (aa 588-683, from mouse CBP). As to the kind of experiment: native gel or EMSA. The source holds these as a separate data set.
Assay [3] concerns the target untagged KIX (aa 587-679, from mouse CBP) (mouse, UniProt P45481 587-679). As to the kind of experiment: cross-linking.

Numbering of substitutions follows the chain as printed. Where two headings read alike, the source gives them in different places.

T1 sequence (P45481 588-683): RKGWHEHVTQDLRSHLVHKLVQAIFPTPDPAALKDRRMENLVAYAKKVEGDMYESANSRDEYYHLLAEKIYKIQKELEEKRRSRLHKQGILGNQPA
Chain of p300/CBP KIX (Q92793 587-666): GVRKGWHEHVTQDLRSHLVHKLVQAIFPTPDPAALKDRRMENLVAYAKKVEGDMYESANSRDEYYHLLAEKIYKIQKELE
Chain of untagged KIX (aa 587-679, from mouse CBP) (P45481 587-679): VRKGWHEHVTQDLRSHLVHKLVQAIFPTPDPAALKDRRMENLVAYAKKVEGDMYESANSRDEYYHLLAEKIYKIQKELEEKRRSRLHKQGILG

In general, Kd refers to the free concentration of one partner at which half of the binding sites on the other are occupied at equilibrium, for simple one-to-one binding. For the molecule CREB (from UniProt P16220), the dissociation constant (Kd) in the assay with p300/CBP KIX was 108000 nM.

B1: Gal4-HBZ-AD wt (Gal4-DBD aa 1-147 fused to the N-terminus of HBZ-AD aa 1-77) (domain or fragment)
chain: MAASGLFRCLPVSCPEDLLVEELVDGLLSLEEELKDKEEEEAVLDGLLSLEEESRGRLRRGPPGEKAPPRGETHRDR
On to B1, for which binding in assay [1] was characterised by a dissociation constant (Kd) of 3 ± 0.5 nM.

B2: Gal4-HBZ-Mut-AD1 (domain or fragment)
chain: B1 chain with L27A, L28A
In assay [2], B2 gave a Kd of 800 nM.

B3: HBZ-AD wt (aa 1-77, without the Gal4-DBD fusion) (domain or fragment)
chain: B1 chain
Broadly, the stoichiometry N is a count of units in the complex or per binding partner. B3: the “stoichiometry N” value in assay [3] came to 1.

B4: Gal4-HBZ-Mut-AD2 (domain or fragment)
chain: B1 chain with L47A, L48A
The molecule B4 displayed a dissociation constant (Kd) in assay [2] of 180 nM.
